Assay results taken from article doi:10.1101/2023.12.11.571162 (2023).

B1: recombinant protocadherin-15 (PCDH15), Mus musculus, His-tagged construct co-expressed with LHFPL5 (natural protein)
chain: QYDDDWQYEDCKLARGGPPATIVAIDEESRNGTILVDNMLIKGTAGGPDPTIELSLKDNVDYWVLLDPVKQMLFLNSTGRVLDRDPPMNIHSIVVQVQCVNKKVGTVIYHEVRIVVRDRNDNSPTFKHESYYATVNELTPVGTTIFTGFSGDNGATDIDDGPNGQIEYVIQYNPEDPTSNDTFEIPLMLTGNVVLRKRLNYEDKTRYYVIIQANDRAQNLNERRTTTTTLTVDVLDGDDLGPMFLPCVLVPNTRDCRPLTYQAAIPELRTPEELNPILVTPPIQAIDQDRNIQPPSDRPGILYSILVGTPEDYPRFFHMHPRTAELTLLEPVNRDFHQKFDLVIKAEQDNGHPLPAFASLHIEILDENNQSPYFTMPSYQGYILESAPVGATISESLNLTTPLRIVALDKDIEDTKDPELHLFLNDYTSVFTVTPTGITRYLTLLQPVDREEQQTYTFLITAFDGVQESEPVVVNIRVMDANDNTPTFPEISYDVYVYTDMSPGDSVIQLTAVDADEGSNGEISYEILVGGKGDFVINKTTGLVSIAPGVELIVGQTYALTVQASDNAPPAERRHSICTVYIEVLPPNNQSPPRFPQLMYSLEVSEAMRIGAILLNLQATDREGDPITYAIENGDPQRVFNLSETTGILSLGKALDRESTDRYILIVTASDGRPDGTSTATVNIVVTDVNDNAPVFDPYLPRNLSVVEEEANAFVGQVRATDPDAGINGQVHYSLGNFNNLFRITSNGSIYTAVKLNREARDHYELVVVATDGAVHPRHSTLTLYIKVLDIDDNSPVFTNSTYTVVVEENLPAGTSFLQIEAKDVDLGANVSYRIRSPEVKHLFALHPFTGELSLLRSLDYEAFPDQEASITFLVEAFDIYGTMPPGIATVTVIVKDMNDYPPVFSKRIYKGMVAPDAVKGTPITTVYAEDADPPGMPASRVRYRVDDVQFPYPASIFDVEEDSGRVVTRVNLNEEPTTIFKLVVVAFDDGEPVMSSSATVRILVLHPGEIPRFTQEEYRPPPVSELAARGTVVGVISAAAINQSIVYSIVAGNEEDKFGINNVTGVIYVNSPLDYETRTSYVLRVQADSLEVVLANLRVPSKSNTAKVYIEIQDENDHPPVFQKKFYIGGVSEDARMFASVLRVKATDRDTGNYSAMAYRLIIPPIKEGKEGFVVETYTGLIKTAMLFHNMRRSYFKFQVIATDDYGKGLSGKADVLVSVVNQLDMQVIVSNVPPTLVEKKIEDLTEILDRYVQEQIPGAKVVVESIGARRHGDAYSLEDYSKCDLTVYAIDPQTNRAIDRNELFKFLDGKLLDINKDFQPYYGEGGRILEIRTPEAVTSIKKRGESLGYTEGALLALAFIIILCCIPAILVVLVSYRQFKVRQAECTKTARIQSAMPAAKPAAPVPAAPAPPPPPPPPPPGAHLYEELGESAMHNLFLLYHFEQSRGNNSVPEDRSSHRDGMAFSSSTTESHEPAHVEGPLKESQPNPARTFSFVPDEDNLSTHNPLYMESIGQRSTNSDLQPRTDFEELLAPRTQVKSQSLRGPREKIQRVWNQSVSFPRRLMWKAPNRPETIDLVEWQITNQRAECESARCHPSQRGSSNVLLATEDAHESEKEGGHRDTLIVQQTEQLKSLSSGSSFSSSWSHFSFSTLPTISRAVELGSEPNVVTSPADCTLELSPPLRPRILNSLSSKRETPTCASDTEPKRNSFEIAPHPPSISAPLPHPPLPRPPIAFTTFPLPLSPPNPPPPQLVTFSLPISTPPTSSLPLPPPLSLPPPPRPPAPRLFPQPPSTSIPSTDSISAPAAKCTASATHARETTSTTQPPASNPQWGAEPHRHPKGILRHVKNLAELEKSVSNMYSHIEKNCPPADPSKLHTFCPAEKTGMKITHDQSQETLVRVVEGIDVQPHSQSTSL
B2: recombinant lipoma HMGIC fusion partner-like protein 5 (LHFPL5), Mus musculus, strep-tagged construct co-expressed with PCDH15 (natural protein)
chain: MVKLLPAQEAAKIYHTNYVRNSRAVGVMWGTLTICFSVLVMALFIQPYWIGDSVSTPQAGYFGLFSYCVGNVLSSELICKGGPLDFSSIPSRAFKTAMFFVALAMFLIIGSIICFSLFFVCNTATVYKICAWMQLAAATGLMIGCLVYPDGWDSSEVRRMCGEQTGKYTLGHCTIRWAFMLAILSIGDALILSFLAFVLGYRQDKLLPDDYKADGNEEV

How the values were obtained:
Assay in all cases: BLI
39G7 = biological target: 39G7
8D1 = biological target: 8D1
anti-LHFPL5 = biological target: anti-LHFPL5

Chain of 8D1 (Q99PJ1 27-1943): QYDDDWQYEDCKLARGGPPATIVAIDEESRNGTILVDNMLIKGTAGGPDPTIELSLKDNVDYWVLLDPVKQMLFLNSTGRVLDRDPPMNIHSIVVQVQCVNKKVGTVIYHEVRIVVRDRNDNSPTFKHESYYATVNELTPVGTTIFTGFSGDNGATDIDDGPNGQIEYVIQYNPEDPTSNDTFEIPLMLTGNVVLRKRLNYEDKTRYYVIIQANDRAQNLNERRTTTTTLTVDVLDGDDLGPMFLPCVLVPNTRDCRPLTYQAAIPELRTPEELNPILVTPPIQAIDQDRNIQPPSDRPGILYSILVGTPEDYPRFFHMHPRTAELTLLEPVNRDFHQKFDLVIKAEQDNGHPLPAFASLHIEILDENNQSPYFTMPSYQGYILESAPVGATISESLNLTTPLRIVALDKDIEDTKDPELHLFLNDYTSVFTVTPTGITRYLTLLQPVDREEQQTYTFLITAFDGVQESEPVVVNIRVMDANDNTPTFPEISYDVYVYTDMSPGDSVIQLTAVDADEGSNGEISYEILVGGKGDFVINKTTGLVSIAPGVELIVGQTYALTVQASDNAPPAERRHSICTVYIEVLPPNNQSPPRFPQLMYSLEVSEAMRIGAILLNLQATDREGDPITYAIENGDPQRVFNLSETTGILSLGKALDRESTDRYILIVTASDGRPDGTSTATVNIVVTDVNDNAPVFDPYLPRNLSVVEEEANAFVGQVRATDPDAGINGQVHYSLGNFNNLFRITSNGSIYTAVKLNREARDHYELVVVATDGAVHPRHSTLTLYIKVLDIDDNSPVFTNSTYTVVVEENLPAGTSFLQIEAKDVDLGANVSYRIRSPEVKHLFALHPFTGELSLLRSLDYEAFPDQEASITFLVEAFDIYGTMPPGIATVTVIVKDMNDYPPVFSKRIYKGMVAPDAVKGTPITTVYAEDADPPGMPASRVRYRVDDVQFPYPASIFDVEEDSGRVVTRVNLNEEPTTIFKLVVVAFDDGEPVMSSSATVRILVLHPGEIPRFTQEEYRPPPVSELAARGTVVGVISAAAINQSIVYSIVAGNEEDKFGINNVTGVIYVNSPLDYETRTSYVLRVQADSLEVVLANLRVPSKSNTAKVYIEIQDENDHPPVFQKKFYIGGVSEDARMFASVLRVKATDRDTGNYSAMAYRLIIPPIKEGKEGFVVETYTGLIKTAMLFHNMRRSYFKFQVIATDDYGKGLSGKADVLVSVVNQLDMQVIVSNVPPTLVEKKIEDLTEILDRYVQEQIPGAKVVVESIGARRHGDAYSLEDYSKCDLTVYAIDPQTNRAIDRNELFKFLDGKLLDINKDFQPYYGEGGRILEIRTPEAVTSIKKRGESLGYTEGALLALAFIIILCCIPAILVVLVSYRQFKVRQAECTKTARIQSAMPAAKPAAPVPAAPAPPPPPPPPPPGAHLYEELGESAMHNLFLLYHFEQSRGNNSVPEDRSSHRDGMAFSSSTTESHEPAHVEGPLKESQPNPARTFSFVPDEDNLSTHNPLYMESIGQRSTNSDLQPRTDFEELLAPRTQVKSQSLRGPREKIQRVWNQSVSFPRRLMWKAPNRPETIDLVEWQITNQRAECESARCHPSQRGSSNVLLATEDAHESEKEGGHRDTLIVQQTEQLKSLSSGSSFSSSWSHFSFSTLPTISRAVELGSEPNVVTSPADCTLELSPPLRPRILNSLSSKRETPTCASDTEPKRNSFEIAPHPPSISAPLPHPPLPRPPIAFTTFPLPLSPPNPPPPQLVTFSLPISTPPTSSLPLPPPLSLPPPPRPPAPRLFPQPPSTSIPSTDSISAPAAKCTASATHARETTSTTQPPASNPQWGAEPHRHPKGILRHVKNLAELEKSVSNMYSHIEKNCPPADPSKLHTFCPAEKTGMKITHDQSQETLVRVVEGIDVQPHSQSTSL
Chain of 39G7 (Q99PJ1 27-1943): as above

Binder | Kd (39G7) [nM] | koff (39G7) [s⁻¹] | Kd (8D1) [nM] | koff (8D1) [s⁻¹] | Kd (anti-LHFPL5) [nM] | koff (anti-LHFPL5) [s⁻¹]
B1 | 0.2 | 2e-05 | 0.05 | 3e-05 | – | –
B2 | – | – | – | – | 1 | 5e-05
